This assay addresses T1, MTDH (Mus musculus, UniProt Q80WJ7).
T1 construct: endogenous in cells; host or cells: SND1-KD PyMT;Mtdh+/+ mouse mammary tumor cells
T1 sequence (Q80WJ7 1-579): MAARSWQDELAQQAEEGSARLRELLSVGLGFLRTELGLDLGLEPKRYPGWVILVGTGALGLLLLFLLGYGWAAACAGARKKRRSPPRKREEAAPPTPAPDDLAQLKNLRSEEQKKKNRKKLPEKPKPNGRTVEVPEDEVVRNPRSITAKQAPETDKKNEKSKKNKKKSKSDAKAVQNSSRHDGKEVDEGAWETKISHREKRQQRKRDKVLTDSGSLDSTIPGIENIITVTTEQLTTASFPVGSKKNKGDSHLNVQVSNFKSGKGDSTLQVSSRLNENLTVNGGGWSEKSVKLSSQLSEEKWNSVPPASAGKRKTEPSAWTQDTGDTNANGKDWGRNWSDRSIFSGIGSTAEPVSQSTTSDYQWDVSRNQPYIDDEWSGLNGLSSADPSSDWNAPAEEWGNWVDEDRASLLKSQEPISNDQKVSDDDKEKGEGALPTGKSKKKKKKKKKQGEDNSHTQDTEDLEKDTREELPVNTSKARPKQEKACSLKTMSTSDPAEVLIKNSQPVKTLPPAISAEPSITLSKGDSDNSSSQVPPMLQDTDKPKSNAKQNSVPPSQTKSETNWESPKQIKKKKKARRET
Nature of the assay: Anti-MTDH immunoprecipitation from SND1-KD PyMT;Mtdh+/+ tumor cells reconstituted with murine SND1. The format is cell-based. The note with it: shRNA-resistant construct in SND1-KD PyMT;Mtdh+/+ tumor cells. As for the experimental part:
(FIG. 24A) Lysates from SND1-KD PyMT;Mtdh+/+ tumor cells reconstituted with vector control, WT or mutant shRNA-resistant murine SND1 were immunoprecipitated with anti-MTDH antibody and immunoblotted for indicated proteins. (FIG. 24B) Mammosphere assays were performed with SND1-KD PyMT;Mtdh+/+ tumor cells reconstituted with vector control or indicated SND1 constructs. (FIG. 24C, FIG. 24D) Mammary tumor incidence (FIG. 24C) and tumor growth curve (FIG. 24D) after orthotopic transplantations of SND1-KD PyMT;Mtdh+/+ tumor cells reconstituted with indicated constructs. Statistics: (FIG. 24B, FIG. 24D) Student's t-test. Data represent mean±SEM. (FIG. 24C) Chi-square test. […], *p<0.01, *p<0.05.
Immunoprecipitation and western blot: For in vivo immunoprecipitation (IP) experiments, cultured cells were washed in cold PBS and lysed in lysis buffer (20 mM Tris pH 7.4, 0.15 M NaCl, 1 mM EDTA, 1 mM EGTA, 1% Tx-100, 0.0025 M Na2P2O7, 1 mM β-glycerolphosphate, 1 mM Na3VO4, and 1 mM NaF) with an EDTA-free protease inhibitor mixture (Roche Applied Science) and PMSF. Cell lysates were then incubated on ice for 10 min, centrifuged, and precleared by incubating with protein A/G beads (Santa Cruz Biotechnology) for 1 h at 4° C. For IP bead preparation, 30 μl of protein A/G beads were incubated with 5 μg of antibodies for 2 h at 4° C. […]

B1: murine SND1 R255E: shRNA-resistant murine SND1 mutant R255E (protein, UniProt Q78PY7 2-910, looked up, variant R255E)
Staphylococcal nuclease …: ASSAQSSGSSGGPAVPTVQRGIVKMVLSGCAIIVRGQPRGGPPPERQINLSNIRAGNLARRAAATQPDGKDTPDEPWAFPAREFLRKKLIGKEVCFTIENKTPQGREYGMIYLGKDTNGENIAESLVAEGLATRREGMRANNPEQNRLSECEEQAKASKKGMWSEGNGSHTIRDLKYTIENPRHFVDSHHQKPVNAIIEHVRDGSVVRALLLPGHHLVTVMLSGIKCPTFRRETDGSETPEPFAAEAKFFTESELLQRDVQIILESCHNQNLLGTILHPNGNITELLLKEGFARCVDWSIAVYTRGAEKLRAAERFAKERRLRIWRDYVPPTANLDQKDKQFVAKVMQVLNADAIVVKLNSGDYKTIHLSSIRPPRLEGDNIQDKNKKLRPLYDIPYMFEAREFLRKKLIGKKVNVTVDYIRPASPATETVPAFSERTCATVTIGGINIAEALVSKGLATVIRYRQDDDQRSSHYDELLAAEARAIKNGKGLHSKKEVPIHRVADISGDTQKAKQFLPFLQRAGRSEAVVEYVFSGSRLKLYLPKETCLITFLLAGIECPRGARNLPGLVQEGEPFSEEATLFTKELVLQREVEVEVESMDKAGNFIGWLHMDGANLSVLLVEQALSKVHFTAERSAYYKPLLSAEEAAKQRKEKVWAHYEERPVEEVMPVLEEKERSASYKPVFVTEITDDLHFYVQDVETGTQLEKLMENMRNDISSHPPVEGSYAPRRGEFCIAKFVDGEWYRARVEKVESPAKVHVFYIDYGNREILPSTRLGTLPPAFSTRVLPAQATEYAFAFIQVPQDEDARTDAVDSVVRDIQNTQCLLNVEHLSASCPHVTLQFADSKGDVGLGLVKEGLVMVEVRKEKQFQKVITEYLNAQESAKSARLNLWRYGDFRADDADEFGYSR
modifications: shRNA-resistant
On to B1, for which the “interaction of murine SND1 mutants with MTDH” value is reported as “nearly completely abolished the interaction with MTDH”.

These data come from patent US10357539B2, “Use of peptides that block metadherin-SND1 interaction as treatment for cancer” (THE TRUSTEES OF PRINCETON UNIVERSITY, priority 2014, dated 2019).
